Reference: publication PMC7108862, “GPC1 specific CAR-T cells eradicate established solid tumor without adverse effects and synergize with anti-PD-1 Ab” (eLife, 2020)

Legend:
[1] = molecular target: T1, recombinant hGPC1 protein (Homo sapiens, UniProt P35052); assay: SPR; scFv-Fc fusion protein (1 μg/ml) captured by polyclonal rabbit anti-mouse IgG immobilised on CM5 chip; recombinant hGPC1 (6.25–400 nM) or mGPC1 (25–400 nM) injected; 25°C, HBS-EP+ buffer, Biacore T200; conditions: both partners purified
T1 construct: glypican-1 (GPC1), human, recombinant protein from Biolegend; also called Human GPC1; human glypican-1; source: bought: Biolegend
T1 sequence (P35052 24-530): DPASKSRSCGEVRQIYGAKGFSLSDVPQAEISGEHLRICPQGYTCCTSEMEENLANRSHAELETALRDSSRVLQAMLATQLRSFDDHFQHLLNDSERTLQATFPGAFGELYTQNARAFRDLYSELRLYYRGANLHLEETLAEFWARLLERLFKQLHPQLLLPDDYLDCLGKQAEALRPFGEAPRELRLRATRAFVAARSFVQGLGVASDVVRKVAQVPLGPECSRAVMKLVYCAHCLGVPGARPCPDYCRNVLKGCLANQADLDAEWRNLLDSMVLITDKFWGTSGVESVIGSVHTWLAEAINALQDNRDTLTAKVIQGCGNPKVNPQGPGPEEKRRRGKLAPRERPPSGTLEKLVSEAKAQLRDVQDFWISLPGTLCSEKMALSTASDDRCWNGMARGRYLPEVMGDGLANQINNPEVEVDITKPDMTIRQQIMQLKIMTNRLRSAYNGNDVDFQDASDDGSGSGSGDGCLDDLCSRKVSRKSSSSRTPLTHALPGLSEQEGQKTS

[2] = molecular target: T2, recombinant mGPC1 protein (Mus musculus, UniProt Q9QZF2); assay: as above; conditions: both partners purified
T2 construct: glypican-1 (GPC1), mouse, recombinant protein from Biolegend; also called Mouse GPC1; mouse glypican-1; source: bought: Biolegend
T2 sequence (Q9QZF2 24-529): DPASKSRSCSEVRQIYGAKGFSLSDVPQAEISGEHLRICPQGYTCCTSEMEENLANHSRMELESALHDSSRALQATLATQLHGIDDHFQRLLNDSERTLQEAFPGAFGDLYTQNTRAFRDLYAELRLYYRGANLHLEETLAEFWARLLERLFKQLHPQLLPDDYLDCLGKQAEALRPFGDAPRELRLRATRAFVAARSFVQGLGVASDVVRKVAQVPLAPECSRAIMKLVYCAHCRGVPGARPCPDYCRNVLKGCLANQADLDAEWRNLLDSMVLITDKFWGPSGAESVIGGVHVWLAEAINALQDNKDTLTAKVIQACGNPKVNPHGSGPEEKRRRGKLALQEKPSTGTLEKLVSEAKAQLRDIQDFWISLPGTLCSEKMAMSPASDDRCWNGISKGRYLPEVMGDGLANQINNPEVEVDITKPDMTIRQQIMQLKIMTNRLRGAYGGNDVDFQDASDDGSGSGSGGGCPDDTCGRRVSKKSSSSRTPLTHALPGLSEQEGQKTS

| Binder | Kd [1] | Kd [2] |
| --- | --- | --- |
| LH form of anti GPC1 scFv-mIgG2a Fc fusion protein (scFv, V domains shown, VL of anti-GPC1 mAb (clone: 1–12); purple) and its source data 1; linker of the scFv; orange); VH of anti-GPC1 mAb (clone: 1–12); green) and its source data 1; scFv cloned into pCAG-Neo mIgG2a-Fc plasmid (FUJIFILM Wako); Variable regions come from a chicken-based antibody; In the functional rows the same scFv stood as a CAR (human CD28 and CD3ζ domains) on human T cells; also called LH form of …) VH: AVTLDESGGGLQTPGRALSLVCKASGFTFSRYAMYWVRQAPGKGLEFVAGIGNTGRYTGYGSAVKGRATISRDSGQSTVRLQLNNLRAEDTGNYYCAKSVSPYCCDAADIDAWGHGTEVIVSS VL: ASTQPSSVSANPGETVKITCSGGSSGYAYGWYQQKSPGSAPVTLLYSNNNRPSDIPSRFSGSKSGSTATLTITGVQAEDEAVYFCGSVDSSSYAGIFGAGTTLTVL | 9.06 nM | 51.8 nM |
| HL form of anti GPC1 scFv-mIgG2a Fc fusion protein (scFv, V domains shown, VH of anti-GPC1 mAb (clone: 1–12), as the VH of m1; linker of the scFv; orange); VL of anti-GPC1 mAb (clone: 1–12), as the VL of m1; scFv cloned into pCAG-Neo mIgG2a-Fc plasmid (FUJIFILM Wako); Variable regions come from a chicken-based antibody; In the functional rows the same scFv stood as a CAR on human T cells (human CD28/CD3ζ) or murine T cells (mouse CD28/CD3ζ); also called HL form of scFv; …) VH: AVTLDESGGGLQTPGRALSLVCKASGFTFSRYAMYWVRQAPGKGLEFVAGIGNTGRYTGYGSAVKGRATISRDSGQSTVRLQLNNLRAEDTGNYYCAKSVSPYCCDAADIDAWGHGTEVIVSS VL: ASTQPSSVSANPGETVKITCSGGSSGYAYGWYQQKSPGSAPVTLLYSNNNRPSDIPSRFSGSKSGSTATLTITGVQAEDEAVYFCGSVDSSSYAGIFGAGTTLTVL | 12.2 nM | 109 nM |
